Assay results as given in patent US20250215083A1 (JIANGSU HENGRUI PHARMACEUTICALS, published 2025).
Like-named read-outs stand apart in the source and are kept apart here.

Tests used:
human GPRC5D [1] = molecular target: T1, human GPRC5D (human, UniProt Q9NZD1 1-345); assay: FACS, MM.1R cells
T1 construct: whole, on cells; also called membrane surface GPRC5D
Experimental: (§1) To test the capacity of the GPRC5D/CD3 bispecific antibodies of the present disclosure to bind to GPRC5D, a flow cytometry assay was used in this test example to measure the capacity of the GPRC5D/CD3 bispecific antibodies to bind to the human multiple myeloma cell line MM.1R (ATCC® CRL-2975), which expresses GPRC5D, and to a stably transfected cell strain CHOK1-cynoGPRC5D, which expresses cynomolgus monkey GPRC5D. The specific procedure was as follows: The cells described above were cultured in complete culture medium containing 10% FBS, incubated in a 37° C., 5% CO₂ incubator for 2 days, and added to a cell plate at 1×10⁵ cells/well. The plate was centrifuged at 300 g for 5 min and washed once with 1% BSA. The antibodies were serially diluted to 8 concentrations and added to the cell plate at 100 μL/well. The plate was incubated at 4° C. for 1 h and washed once with 1% BSA. […] The plate was washed three times with 1% BSA, PBS was added at 100 μL/well, and plate reading was performed.

human GPRC5D [2] = molecular target: T1, human GPRC5D; assay: FACS, MM.1R cells; remark: listed apart in the source
Experimental: as §1

cynomolgus monkey GPRC5D [3] = molecular target: T2, cynomolgus monkey GPRC5D (cynomolgus monkey); assay: FACS, CHOK1-cynoGPRC5D cells
T2 construct: whole, on cells; also called CynoGPRC5D; cynoGPRC5D
Experimental: as §1

cynomolgus monkey GPRC5D [4] = molecular target: T2, cynomolgus monkey GPRC5D; assay: FACS, CHOK1-cynoGPRC5D cells; remark: listed apart in the source
Experimental: as §1

T1 sequence (Q9NZD1 whole entry): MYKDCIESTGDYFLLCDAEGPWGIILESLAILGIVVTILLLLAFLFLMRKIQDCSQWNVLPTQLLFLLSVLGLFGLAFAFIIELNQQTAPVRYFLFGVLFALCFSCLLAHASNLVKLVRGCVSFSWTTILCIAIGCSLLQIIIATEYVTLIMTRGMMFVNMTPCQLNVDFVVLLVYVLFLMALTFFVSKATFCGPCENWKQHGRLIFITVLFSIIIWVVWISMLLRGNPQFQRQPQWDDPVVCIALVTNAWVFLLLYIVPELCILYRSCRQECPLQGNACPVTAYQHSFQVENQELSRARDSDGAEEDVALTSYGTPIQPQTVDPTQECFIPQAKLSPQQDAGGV

Row | Binder | EC50 (human GPRC5D [1]) [pM] | EC50 (human GPRC5D [2]) [pM] | Max (human GPRC5D [2]) | EC50 (cynomolgus monkey GPRC5D [3]) [pM] | Max (cynomolgus monkey GPRC5D [3]) | EC50 (cynomolgus monkey GPRC5D [4]) [pM]
1 | F11-2 (bispecific antibody, formula 11) heavy: not shown light: DVVMTQTPLSLSVTPGQPASISCRSSQSLVHSSGNTYLYWYLQKPGQSPKLLIYKVSNRFSGVPDRFSGSGSGTDFTLKISRVEAEDVGVYYCSQSTHVPPLTFGQGTKLEIKRTVAAPSVFIFPPSDEQLKSGTASVVCLLNNFYPREAKVQWKVDNALQSGNSQESVTEQDSKDSTYSLSSTLTLSKADYEKHKVYACEVTHQGLSSPVTKSFNRGEC | 350 | 350 | 1.63 | 470 | 1.09 | 470
2 | F11-1 (bispecific antibody, formula 11, GPRC5D x CD3 (S107E scFv)) heavy: not shown light: DIVMTQTPLSLSVTPGQPASISCRSSQSLVHSNGNTYLYWYLQKPGQSPQLLIYKVSNRFSGVPDRFSGSGSGTDFTLKISRVEAEDVGVYYCSQSTHVPPLTFGQGTKLEIKRTVAAPSVFIFPPSDEQLKSGTASVVCLLNNFYPREAKVQWKVDNALQSGNSQESVTEQDSKDSTYSLSSTLTLSKADYEKHKVYACEVTHQGLSSPVTKSFNRGEC | 440 | 440 | 1.76 | 360 | 1.31 | 360
3 | F11-5 (bispecific antibody, formula 11) heavy: not shown light: DVVMTQTPLSLSVTPGQPASISCRSSQSLVHSSGNTYLYWYLQKPGQSPKLLIYKVSNRFSGVPDRFSGSGSGTDFTLKISRVEAEDVGVYYCSQSTHVPPLTFGQGTKLEIKRTVAAPSVFIFPPSDEQLKSGTASVVCLLNNFYPREAKVQWKVDNALQSGNSQESVTEQDSKDSTYSLSSTLTLSKADYEKHKVYACEVTHQGLSSPVTKSFNRGEC | 340 | 340 | 1.6 | 410 | 1.12 | 420
4 | F11-6 (bispecific antibody, formula 11) heavy: not shown light: DVVMTQTPLSLSVTPGQPASISCRSSQSLVHSQGNTYLYWYLQKPGQSPKLLIYKVSNRFSGVPDRFSGSGSGTDFTLKISRVEAEDVGVYYCSQSTHVPPLTFGQGTKLEIKRTVAAPSVFIFPPSDEQLKSGTASVVCLLNNFYPREAKVQWKVDNALQSGNSQESVTEQDSKDSTYSLSSTLTLSKADYEKHKVYACEVTHQGLSSPVTKSFNRGEC | 230 | 230 | 1.6 | 320 | 1.35 | 320
5 | F11-3 (bispecific antibody, formula 11) heavy: not shown light: DVVMTQTPLSLSVTPGQPASISCRSSQSLVHSQGNTYLYWYLQKPGQSPKLLIYKVSNRFSGVPDRFSGSGSGTDFTLKISRVEAEDVGVYYCSQSTHVPPLTFGQGTKLEIKRTVAAPSVFIFPPSDEQLKSGTASVVCLLNNFYPREAKVQWKVDNALQSGNSQESVTEQDSKDSTYSLSSTLTLSKADYEKHKVYACEVTHQGLSSPVTKSFNRGEC | 300 | 300 | 1.8 | 270 | 1.45 | 270
6 | F11-4 (bispecific antibody, formula 11) heavy: not shown light: DIVMTQTPLSLSVTPGQPASISCRSSQSLVHSNGNTYLYWYLQKPGQSPQLLIYKVSNRFSGVPDRFSGSGSGTDFTLKISRVEAEDVGVYYCSQSTHVPPLTFGQGTKLEIKRTVAAPSVFIFPPSDEQLKSGTASVVCLLNNFYPREAKVQWKVDNALQSGNSQESVTEQDSKDSTYSLSSTLTLSKADYEKHKVYACEVTHQGLSSPVTKSFNRGEC | 390 | 390 | 1.66 | 280 | 1.27 | 280
7 | F4-9 (bispecific antibody, formula 4 with Chi-45 variable regions) heavy 1: not shown light 1: not shown heavy 2: EVKLVESGGGLVQPGDFLSLSCAASGFTFTDYYLSWVRQPPGKALEWLAFIRNRAKGYTTEYSASVKGRFTISRDNSQSILYLQMNVLRAEDSATYYCARMGGKGWHFDVWGTGTTVTVSSASTKGPSVFPLAPSSKSTSGGTAALGCLVKDYFPEPVTVSWNSGALTSGVHTFPAVLQSSGLYSLSSVVTVPSSSLGTQTYICNVNHKPSNTKVDKKVEPKSCDKTHTCPPCPAPEAAGGPSVFLFPPKPKDTLMISRTPEVTCVVVDVSHEDPEVKFNWYVDGVEVHNAKTKPREEQYNSTYRVVSVLTVLHQDWLNGKEYKCKVSNKALPAPIEKTISKAKGQPREPQVCTLPPSRDELTKNQVSLSCAVKGFYPSDIAVEWESNGQPENNYKTTPPVLDSDGSFFLVSKLTVDKSRWQQGNVFSCSVMHEALHNHYTQKSLSLSPGK light 2: DVLMTQSPLSLPVSLGDQASISCRSSQSIVHSNGNTYLEWYLQKPGQSPKLLIYKVSNRFSGVPDRFFGSGSGTDFTLKINRVEAEDLGVYYCFQGSHVPFTFGGGTKLEIKRTVAAPSVFIFPPSDEQLKSGTASVVCLLNNFYPREAKVQWKVDNALQSGNSQESVTEQDSKDSTYSLSSTLTLSKADYEKHKVYACEVTHQGLSSPVTKSFNRGEC | – | 19200 | 13200 | 4010 | 83700 | –
8 | F2-4 (bispecific antibody, formula 2) heavy 1: not shown light 1: DVVMTQSPLSLPVTPGEPASISCRSSQSIVHSNRNTYLEWYLQKPGQSPKLLIYKVSNRFSGVPDRFFGSGSGTDFTLKINRVEAEDVGVYYCFQGSHVPFTFGGGTKVEIKRTVAAPSVFIFPPSDEQLKSGTASVVCLLNNFYPREAKVQWKVDNALQSGNSQESVTEQDSKDSTYSLSSTLTLSKADYEKHKVYACEVTHQGLSSPVTKSFNRGEC heavy 2: not shown light 2: not shown | 7560 | – | – | – | – | 3950
9 | F11-7 (bispecific antibody, formula 11) heavy: not shown light: DVVLTQSPLSLPVTLGQPASISCKSSQSLLHSNGKTYLNWLLQRPGQSPRRLIYLVSKLDSGVPDRFSGSGSGTDFTLKISRVEAEDVGVYYCAQGTHFPRTFGGGTKVEIKRTVAAPSVFIFPPSDEQLKSGTASVVCLLNNFYPREAKVQWKVDNALQSGNSQESVTEQDSKDSTYSLSSTLTLSKADYEKHKVYACEVTHQGLSSPVTKSFNRGEC | 1890 | 1890 | 2020 | – | – | 760

Continued, values first:

Row | EC50 (human GPRC5D [1]) [pM] | EC50 (human GPRC5D [2]) [pM] | Max (human GPRC5D [2]) | EC50 (cynomolgus monkey GPRC5D [3]) [pM] | Max (cynomolgus monkey GPRC5D [3]) | EC50 (cynomolgus monkey GPRC5D [4]) [pM] | Binder
10 | 1050 | 1050 | 718 | 2210 | 28100 | 2210 | F11-13 (bispecific antibody, formula 11) heavy: not shown light: DIQMTQSPSSVSASVGDRVTITCKASQNVGSNVAWYQQKPGKAPKALIYSASYRYSGVPSRFSGSGSGTDFTLTISSLQPEDFATYYCHQYNSYPPTFGQGTKLEIKRTVAAPSVFIFPPSDEQLKSGTASVVCLLNNFYPREAKVQWKVDNALQSGNSQESVTEQDSKDSTYSLSSTLTLSKADYEKHKVYACEVTHQGLSSPVTKSFNRGEC
11 | 1290 | 1290 | 1470 | – | – | 400 | F11-10 (bispecific antibody, formula 11) heavy: not shown light: DVVLTQSPLSLPVTLGQPASISCKSSQSLLHSNGKTYLNWLLQRPGQSPRRLIYLVSKLDSGVPDRFSGSGSGTDFTLKISRVEAEDVGVYYCAQGTHFPRTFGGGTKVEIKRTVAAPSVFIFPPSDEQLKSGTASVVCLLNNFYPREAKVQWKVDNALQSGNSQESVTEQDSKDSTYSLSSTLTLSKADYEKHKVYACEVTHQGLSSPVTKSFNRGEC
12 | 2160 | 2160 | 1950 | – | – | 170 | F11-9 (bispecific antibody, formula 11) heavy: not shown light: DVVLTQSPLSLPVTLGQPASISCKSSQSLLHSTGKTYLNWLLQRPGQSPRRLIYLVSKLDSGVPDRFSGSGSGTDFTLKISRVEAEDVGVYYCAQGTHFPRTFGGGTKVEIKRTVAAPSVFIFPPSDEQLKSGTASVVCLLNNFYPREAKVQWKVDNALQSGNSQESVTEQDSKDSTYSLSSTLTLSKADYEKHKVYACEVTHQGLSSPVTKSFNRGEC
13 | 1930 | 1930 | 1600 | – | – | 1600 | F11-12 (bispecific antibody, formula 11) heavy: not shown light: DVVLTQSPLSLPVTLGQPASISCKSSQSLLHSTGKTYLNWLLQRPGQSPRRLIYLVSKLDSGVPDRFSGSGSGTDFTLKISRVEAEDVGVYYCAQGTHFPRTFGGGTKVEIKRTVAAPSVFIFPPSDEQLKSGTASVVCLLNNFYPREAKVQWKVDNALQSGNSQESVTEQDSKDSTYSLSSTLTLSKADYEKHKVYACEVTHQGLSSPVTKSFNRGEC
14 | 2000 | 2000 | 1910 | – | – | 360 | F11-8 (bispecific antibody, formula 11) heavy: not shown light: DVVLTQSPLSLPVTLGQPASISCKSSQSLLHSSGKTYLNWLLQRPGQSPRRLIYLVSKLDSGVPDRFSGSGSGTDFTLKISRVEAEDVGVYYCAQGTHFPRTFGGGTKVEIKRTVAAPSVFIFPPSDEQLKSGTASVVCLLNNFYPREAKVQWKVDNALQSGNSQESVTEQDSKDSTYSLSSTLTLSKADYEKHKVYACEVTHQGLSSPVTKSFNRGEC
15 | 1700 | 1700 | 1560 | – | – | 1010 | F11-11 (bispecific antibody, formula 11) heavy: not shown light: DVVLTQSPLSLPVTLGQPASISCKSSQSLLHSSGKTYLNWLLQRPGQSPRRLIYLVSKLDSGVPDRFSGSGSGTDFTLKISRVEAEDVGVYYCAQGTHFPRTFGGGTKVEIKRTVAAPSVFIFPPSDEQLKSGTASVVCLLNNFYPREAKVQWKVDNALQSGNSQESVTEQDSKDSTYSLSSTLTLSKADYEKHKVYACEVTHQGLSSPVTKSFNRGEC
